# Results from the supplement of paper PMC10567573.
# B1: OAS1 (parent)
# chain: TPAKSLDKFIEDYLLPDTCFRMQI
# Variants of: B1
# Experiment: protein stability index of a GFP-peptide fusion (GPS, HEK-293T) (PSI 1-6); higher = more stable
# Settings: c terminus: a fixed tail appended
# 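Note: lentivirally expressed fusions sorted by FACS into six bins by GFP to DsRed ratio, PSI derived from sequencing read proportions per bin multiplied by bin number.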
row,Variant,protein stability index
1,TPAKSLDKFIEDYLLPLTCFRMQI,3.49
2,TPAKSLDKFIEDYLLPNTCFRMQI,1.77
3,TPAKSLDKFIEDYLLPRTCFRMQI,2.98
4,TPAKSLDKFIEDYLLPKTCFRMQI,2.51
5,TPAKSLDKFIEDYLLPPTCFRMQI,3.25
6,TPAKSLDKFIEDYLLPFTCFRMQI,3.31
7,TPAKSLDKFIEDYLLPYTCFRMQI,2.32
8,TPAKSLDKFIEDYLLPTTCFRMQI,2.03
9,TPAKSLDKFIEDYLLPATCFRMQI,2.9
10,TPAKSLDKFIEDYLLPMTCFRMQI,2.99
11,TPAKSLDKFIEDYLLPQTCFRMQI,1.88
12,TPAKSLDKFIEDYLLPHTCFRMQI,2.43
13,TPAKSLDKFIEDYLLPSTCFRMQI,2.79
14,TPAKSLDKFIEDYLLPGTCFRMQI,3.94
15,TPAKSLDKFIEDYLLPETCFRMQI,2.69
16,TPAKSLDKFIEDYLLPDTCHRMQI,1.47
17,TPAKSLDKFIEDYLLPDTCMRMQI,3.12
18,TPAKSLDKFIEDYLLPDTCLRMQI,2.2
19,TPAKSLDKFIEDYLLPDTCGRMQI,1.74
20,TPAKSLDKFIEDYLLPDTCERMQI,1.97
21,TPAKSLDKFIEDYLLPDTCCRMQI,2.15
22,TPAKSLDKFIEDYLLPDTCDRMQI,2.43
23,TPAKSLDKFIEDYLLPDTCIRMQI,3.6
24,TPAKSLDKFIEDYLLPDTCARMQI,2.23

row,Variant,protein stability index
1,TPAKSLDKFIEDYLLPDTCKRMQI,2.4
2,TPAKSLDKFIEDYLLPDTWFRMQI,3.2
3,TPAKSLDKFIEDYLLPDTPFRMQI,2.68
4,TPAKSLDKFIEDYLLPDTFFRMQI,2.51
5,TPAKSLDKFIEDYLLPDTVFRMQI,3.28
6,TPAKSLDKFIEDYLLPDTGFRMQI,2.44
7,TPAKSLDKFIEDYLLPDTHFRMQI,2.96
8,TPAKSLDKFIEDYLLPDTRFRMQI,3.1
9,TPAKSLDKFIEDYLLPDTYFRMQI,3.22
10,TPAKSLDKFIEDYLLPDTEFRMQI,1.43
11,TPAKSLDKFIEDYLLPDTKFRMQI,1.59
12,TPAKSLDKFIEDYLLPDTQFRMQI,2.3
13,TPAKSLDKFIEDYLLPDTTFRMQI,2.24
14,TPAKSLDKFIEDYLLPDTLFRMQI,2.02
15,TPAKSLDKFIEDYLLPDTNFRMQI,3.42
16,TPAKSLDKFIEDYLLPDTIFRMQI,4.78
17,TPAKSLDKFIEDYLLPDTAFRMQI,2.88
18,TPAKSLDKFIEDYLLPDTDFRMQI,1.62
19,TPAKSLDKFIEDYLLADTCFRMQI,2.73
20,TPAKSLDKFIEDYLLIDTCFRMQI,2.41
21,TPAKSLDKFIEDYLLKDTCFRMQI,2.78
22,TPAKSLDKFIEDYLLNDTCFRMQI,2.65
23,TPAKSLDKFIEDYLLHDTCFRMQI,2.28
24,TPAKSLDKFIEDYLLMDTCFRMQI,1.84

row,Variant,protein stability index
1,TPAKSLDKFIEDYLLSDTCFRMQI,2.49
2,TPAKSLDKFIEDYLLVDTCFRMQI,3.9
3,TPAKSLDKFIEDYLLYDTCFRMQI,1.82
4,TPAKSLDKFIEDYLLRDTCFRMQI,3.61
5,TPAKSLDKFIEDYLLTDTCFRMQI,2.68
6,TPAKSLDKFIEDYLLQDTCFRMQI,3.14
7,TPAKSLDKFIEDYLLWDTCFRMQI,1.9
8,TPAKSLDKFIEDYLLEDTCFRMQI,1.93
9,TPAKSLDKFIEDYLLCDTCFRMQI,2.44
10,TPAKSLDKSIEDYLLPDTCFRMQI,2.32
11,TPAKSLDKRIEDYLLPDTCFRMQI,2.08
12,TPAKSLDKYIEDYLLPDTCFRMQI,1.96
13,TPAKSLDKQIEDYLLPDTCFRMQI,2.15
14,TPAKSLDKWIEDYLLPDTCFRMQI,3.55
15,TPAKSLDKVIEDYLLPDTCFRMQI,3.9
16,TPAKSLDKTIEDYLLPDTCFRMQI,2.95
17,TPAKSLDKPIEDYLLPDTCFRMQI,1.97
18,TPAKSLDKFIEDYLLPDHCFRMQI,2.22
19,TPAKSLDKFIEDYLLPDWCFRMQI,2.58
20,TPAKSLDKFIEDYLLPDNCFRMQI,2.41
21,TPAKSLDKFIEDYLLPDRCFRMQI,3.05
22,TPAKSLDKFIEDYLLPDQCFRMQI,2.89
23,TPAKSLDKFIEDYLLPDDCFRMQI,3.16
24,TPAKSLDKFIEDYLLPDVCFRMQI,2.23

row,Variant,protein stability index
1,TPAKSLDKFIEDYLLPDGCFRMQI,3.04
2,TPAKSLDKFIEDYLLPDYCFRMQI,3.93
3,TPAKSLDKFIEDYLLPDECFRMQI,3.65
4,TPAKSLDKFIEDYLLPDICFRMQI,2.04
5,TPAKSLDKFIEDYLLPDACFRMQI,2.25
6,TPAKSLDKFIEDYLLPDKCFRMQI,1.83
7,TPAKSLDKFIEDYLLPDLCFRMQI,2.42
8,TPAKSLDKFIEDYLLPDMCFRMQI,2.36
9,TPAKSLDKFIEDYLLPDFCFRMQI,2.45
10,TPAKSLDKFIEDYLLPDPCFRMQI,1.59
11,TPAKSLDKFIEDYLLPDCCFRMQI,3.48
12,TPAKSLDKFDEDYLLPDTCFRMQI,1.55
13,TPAKSLDKFNEDYLLPDTCFRMQI,1.51
14,TPAKSLDKFGEDYLLPDTCFRMQI,2.23
15,TPAKSLDKFVEDYLLPDTCFRMQI,3.54
16,TPAKSLDKFYEDYLLPDTCFRMQI,2.38
17,TPAKSLDKFPEDYLLPDTCFRMQI,1.87
18,TPAKSLDKFLEDYLLPDTCFRMQI,3.56
19,TPAKSLDKFTEDYLLPDTCFRMQI,2.35
20,TPAKSLDKFSEDYLLPDTCFRMQI,1.7
21,TPAKSLDKFAEDYLLPDTCFRMQI,2.48
22,TPAKSLDKFCEDYLLPDTCFRMQI,3.19
23,TPAKSLDKFQEDYLLPDTCFRMQI,1.67
24,TPAKSLDKFMEDYLLPDTCFRMQI,3.83

row,Variant,protein stability index
1,TPAKSLDKFREDYLLPDTCFRMQI,2.78
2,TPAKSLDKFEEDYLLPDTCFRMQI,2.52
3,TPAKSLDKFKEDYLLPDTCFRMQI,1.31
4,TPAKSLDKFFEDYLLPDTCFRMQI,3.41
5,TPAKSLDKFHEDYLLPDTCFRMQI,1.92
6,TPAKSLDKFIEDYLWPDTCFRMQI,2.56
7,TPAKSLDKFIEDYLHPDTCFRMQI,2.12
8,TPAKSLDKFIEDYLNPDTCFRMQI,2.21
9,TPAKSLDKFIEDYLEPDTCFRMQI,3.04
10,TPAKSLDKFIEDYLKPDTCFRMQI,2.07
11,TPAKSLDKFIEDYLAPDTCFRMQI,1.72
12,TPAKSLDKFIEDYLTPDTCFRMQI,1.74
13,TPAKSLDKFIEDYLIPDTCFRMQI,3.88
14,TPAKSLDKFIEDYLQPDTCFRMQI,3.04
15,TPAKSLDKFIEDYLGPDTCFRMQI,2.43
16,TPAKSLDKFIEDYLVPDTCFRMQI,3.19
17,TPAKSLDKFIEDYLFPDTCFRMQI,3.79
18,TPAKSLDKFIEDYLSPDTCFRMQI,2.26
19,TPAKSLDKFIEDYLRPDTCFRMQI,3.08
20,TPAKSLDKFIEDYLPPDTCFRMQI,2.31
21,TPAKSLDKFIEDYLDPDTCFRMQI,1.74
22,TPAKSLDKFIEKYLLPDTCFRMQI,2.75
23,TPAKSLDKFIENYLLPDTCFRMQI,2.91
24,TPAKSLDKFIESYLLPDTCFRMQI,2.1

row,Variant,protein stability index
1,TPAKSLDKFIEEYLLPDTCFRMQI,2.14
2,TPAKSLDKFIEYYLLPDTCFRMQI,2.19
3,TPAKSLDKFIETYLLPDTCFRMQI,2.58
4,TPAKSLDKFIERYLLPDTCFRMQI,3.33
5,TPAKSLDKFIEWYLLPDTCFRMQI,2.51
6,TPAKSLDKFIELYLLPDTCFRMQI,2.81
7,TPAKSLDKFIEFYLLPDTCFRMQI,2.97
8,TPAKSLDKFIEHYLLPDTCFRMQI,2.25
9,TPAKSLDKFIEMYLLPDTCFRMQI,2.77
10,TPAKSLDKFIECYLLPDTCFRMQI,1.76
11,TPAKSLDKFIEIYLLPDTCFRMQI,1.4
12,TPAKSLDKFIEGYLLPDTCFRMQI,1.79
13,TPAKSLDKFIEQYLLPDTCFRMQI,2.92
14,TPAKSLDKFIEAYLLPDTCFRMQI,3.14
15,TPAKSLDKFIEDYNLPDTCFRMQI,3.44
16,TPAKSLDKFIEDYTLPDTCFRMQI,2.05
17,TPAKSLDKFIEDYMLPDTCFRMQI,3.5
18,TPAKSLDKFIEDYILPDTCFRMQI,2.08
19,TPAKSLDKFIEDYQLPDTCFRMQI,1.62
20,TPAKSLDKFIEDYVLPDTCFRMQI,2.83
21,TPAKSLDKFIEDYWLPDTCFRMQI,2.18
22,TPAKSLDKFIEDYKLPDTCFRMQI,2.37
23,TPAKSLDKFIEDYDLPDTCFRMQI,1.77
24,TPAKSLDKFIEDYGLPDTCFRMQI,2.84

row,Variant,protein stability index
1,TPAKSLDKFIEDYELPDTCFRMQI,1.74
2,TPAKSLDKFIEDYYLPDTCFRMQI,3.1
3,TPAKSLDKFIEDYHLPDTCFRMQI,2.62
4,TPAKSLDKFIEDYFLPDTCFRMQI,3.94
5,TPAKSLDKFIEDYRLPDTCFRMQI,1.8
6,TPAKSLDKFIEDYSLPDTCFRMQI,1.74
7,TPAKSLDKFIEDYCLPDTCFRMQI,2.35
8,TPAKSLDKFIEDYPLPDTCFRMQI,2.46
9,TPAKSLDKFIEDILLPDTCFRMQI,2.54
10,TPAKSLDKFIEDFLLPDTCFRMQI,3.4
11,TPAKSLDKFIEDTLLPDTCFRMQI,1.9
12,TPAKSLDKFIEDALLPDTCFRMQI,1.98
13,TPAKSLDKFIEDNLLPDTCFRMQI,1.85
14,TPAKSLDKFIEDLLLPDTCFRMQI,3.57
15,TPAKSLDKFIEDVLLPDTCFRMQI,2.87
16,TPAKSLDKFIEDWLLPDTCFRMQI,3.04
17,TPAKSLDKFIEDSLLPDTCFRMQI,2.22
18,TPAKSLDKFIEDMLLPDTCFRMQI,2.12
19,TPAKSLDKFIEDRLLPDTCFRMQI,1.27
20,TPAKSLDKFIEDQLLPDTCFRMQI,1.5
21,TPAKSLDKFIEDDLLPDTCFRMQI,2.36
22,TPAKSLDKFIEDCLLPDTCFRMQI,3.56
23,TPAKSLDKFIEDGLLPDTCFRMQI,1.85
24,TPAKSLDKFIEDELLPDTCFRMQI,1.79

row,Variant,protein stability index
1,TPAKSLDKFIEDPLLPDTCFRMQI,1.57
2,TPAKSLDKFIYDYLLPDTCFRMQI,1.66
3,TPAKSLDKFIWDYLLPDTCFRMQI,2.84
4,TPAKSLDKFIVDYLLPDTCFRMQI,3.93
5,TPAKSLDKFIRDYLLPDTCFRMQI,4.73
6,TPAKSLDKFIQDYLLPDTCFRMQI,2.19
7,TPAKSLDKFIPDYLLPDTCFRMQI,3.89
8,TPAKSLDKFIADYLLPDTCFRMQI,2.77
9,TPAKSLDKFIFDYLLPDTCFRMQI,2.29
10,TPAKSLDKFISDYLLPDTCFRMQI,1.97
11,TPAKSLDKFILDYLLPDTCFRMQI,3.59
12,TPAKSLDKFITDYLLPDTCFRMQI,2.33
13,TPAKSLDKFIIDYLLPDTCFRMQI,2.61
14,TPAKSLDKFIMDYLLPDTCFRMQI,3.78
15,TPAKSLDKFICDYLLPDTCFRMQI,2.38
16,TPAKSLDKFINDYLLPDTCFRMQI,3.04
17,TPAKSLDKFIDDYLLPDTCFRMQI,2.34
18,TPAKSLDKFIGDYLLPDTCFRMQI,3
19,TPAKSLDKFIKDYLLPDTCFRMQI,2.83
20,TPAKSLDKFIHDYLLPDTCFRMQI,1.26
